Data taken from patent US20220406376A1 (MacroGenics, published 2022).
Numbering of substitutions follows the chain as printed.

What was measured:
[1] = target: T1, CD137 on the surface of cells (activated human T cells; engineered CHO cells) (human, UniProt Q07011 24-255); assay: flow cytometry on activated pan T cells (donor D46433, CD8 PE), anti-hFc APC MFI
T1 construct: whole, on cells; also called human CD137; cell surface expressed CD137

[2] = target: T2, 5T4 on the surface of target cells (JIMT-1, SKOV-3) (UniProt Q13641 32-420, limits assumed); assay: flow cytometry on JIMT-1 (5T4 hi) cells, anti-hFc APC MFI
T2 construct: whole, on cells
T2 sequence (looked up): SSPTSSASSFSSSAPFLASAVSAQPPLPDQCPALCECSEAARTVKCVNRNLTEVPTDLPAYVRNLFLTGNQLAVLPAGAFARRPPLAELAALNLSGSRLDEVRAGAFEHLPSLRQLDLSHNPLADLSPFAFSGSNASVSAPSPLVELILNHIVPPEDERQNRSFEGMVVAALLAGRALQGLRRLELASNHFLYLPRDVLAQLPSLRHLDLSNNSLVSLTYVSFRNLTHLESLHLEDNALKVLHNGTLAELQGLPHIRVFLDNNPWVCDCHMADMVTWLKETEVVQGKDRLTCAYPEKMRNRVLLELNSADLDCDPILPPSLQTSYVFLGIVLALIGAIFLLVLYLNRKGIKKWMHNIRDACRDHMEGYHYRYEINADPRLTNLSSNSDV

[3] = target: T1, CD137 on the surface of cells …; assay: flow cytometry on activated pan T cells (donor D46433, CD8 PE), anti-hFc APC MFI; remark: listed apart in the source
[4] = target: T3, HER2/neu on the surface of target cells (N87, JIMT-1, MCF-7, MDA-MB231) (UniProt P04626 23-1255, limits assumed); assay: flow cytometry on N87 cells, anti-hFc APC MFI
T3 construct: whole, on cells

[5] = target: T1, CD137 on the surface of cells …; assay: flow cytometry on activated CD8+ T cells (donor D59788, CD8 FITC), anti-hFc APC MFI
[6] = target: T1, CD137 on the surface of cells …; assay: flow cytometry on activated pan T cells gated CD8+, anti-hFc APC MFI
Procedure: Three antibodies were selected for further study. For such evaluations, purified pan T-cells (see above) were stimulated with anti-CD3/CD28 beads (cells:beads=1:1) for 72 hours in the presence of IL-2 (100 U/mL). 100 μL of activated T cells (1.0×10⁶ cells/mL) and 100 μL of serially diluted (5- or 10-fold dilutions) test article (antibody or bispecific diabody) was added to each well of microtiter assay plate(s), mixed and incubated at RT for 45 min. The cells were washed with FACS Buffer and secondary antibody (anti-human-Fc region-APC) was then added to each well; mixed and incubated at RT for 30 min. Cells were then washed FACS Buffer and T cell surface marker antibodies (anti-CD4 labeled with V510, and anti-CD8 labeled with FITC) were then added to each well; mixed and incubated at RT for 30 min. Cells were washed and resuspended in 100 μL FACS Buffer and analyzed by flow cytometry (BD LSR Fortessa or FACSCanto 11) for cell event collection. Data analysis were performed via FloJo v10.
Chimeric antibodies having human IgG1 Fc regions and murine VH/VL domains were generated (designated: chCD137 MAB-1, chCD137 MAB-2, chCD137 MAB-3, chCD137 MAB-4 and chCD137 MAB-5, respectively), and were tested for their ability to bind to activated CD8⁺ T cells.

[7] = target: T4, extracellular portion of human CD137 fused to a histidine-containing peptide (human, UniProt Q07011 24-186); assay: SPR (BIACORE); antibody captured on anti-human Fc; huCD137 25 and 100 nM; 1:1 Langmuir
T4 construct: extracellular domain; also called huCD137; His-tagged soluble human CD137
Procedure: Thus, an extracellular portion of human CD137 fused to a histidine-containing peptide (“huCD137”) was passed over a surface coated with immobilized antibody. Briefly, each test molecule was captured onto an F(ab)₂ goat-anti-human Fc-coated surface and then incubated in the presence of different concentrations (25 nM and 100 nM) of huCD137. The kinetics of binding were determined via BIACORE® analysis binding (normalized 1:1 Langmuir binding model).

T1 sequence (Q07011 24-255, change not shown): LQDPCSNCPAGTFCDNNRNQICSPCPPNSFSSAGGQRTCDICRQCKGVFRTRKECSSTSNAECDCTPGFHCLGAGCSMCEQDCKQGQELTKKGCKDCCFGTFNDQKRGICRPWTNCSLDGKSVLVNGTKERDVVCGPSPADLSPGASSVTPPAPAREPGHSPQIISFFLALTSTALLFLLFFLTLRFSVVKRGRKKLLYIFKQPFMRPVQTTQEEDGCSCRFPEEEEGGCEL

B1: TRIDENT-1 (bispecific antibody, human IgG1, kappa, L234A L235A)
chain 1: DIQMTQSPSSLSASVGDRVTITCRPSQDISNYLNWYQQKPDKTVKLLIYYTSRLRSGVPSRFSGSGSGTDFTFTISSLQPEDIATYFCQQGDTLPYTFGQGTKLEIKGGGSGGGGQVQLVQSGAEVKKPGASVKVSCKASGYTFTSYWINWVKQAPGQGLEWIGNIYPSDSYTNYNQKFKDKATITADKSTSTAYMELSSLRSEDTAVYYCTRDYGSAYSMSTWGQGTTVTVSSASTKGEVAACEKEVAALEKEVAALEKEVAALEKGGGDKTHTCPPCPAPEAAGGPSVFLFPPKPKDTLMISRTPEVTCVVVDVSHEDPEVKFNWYVDGVEVHNAKTKPREEQYNSTYRVVSVLTVLHQDWLNGKEYKCKVSNKALPAPIEKTISKAKGQPREPQVYTLPPSREEMTKNQVSLWCLVKGFYPSDIAVEWESNGQPENNYKTTPPVLDSDGSFFLYSKLTVDKSRWQQGNVFSCSVMHEALHNHYTQKSLSLSPGK
chain 2: DIQMTQSPSSLSASVGDRVTITCRPSQDISNYLNWYQQKPDKTVKLLIYYTSRLRSGVPSRFSGSGSGTDFTFTISSLQPEDIATYFCQQGDTLPYTFGQGTKLEIKGGGSGGGGQVQLVQSGAEVKKPGASVKVSCKASGYTFTSYWINWVKQAPGQGLEWIGNIYPSDSYTNYNQKFKDKATITADKSTSTAYMELSSLRSEDTAVYYCTRDYGSAYSMSTWGQGTTVTVSSASTKGKVAACKEKVAALKEKVAALKEKVAALKE
heavy: QVTLRESGPALVKPTQTLTLTCTFSGFSLSTSGMSVGWIRQPPGKALEWLADIWWDDKKDYNPSLKSRLTISKDTSKNQVVLKVTNMDPADTATYYCARSMITNWYFDVWGAGTTVTVSSASTKGPSVFPLAPSSKSTSGGTAALGCLVKDYFPEPVTVSWNSGALTSGVHTFPAVLQSSGLYSLSSVVTVPSSSLGTQTYICNVNHKPSNTKVDKRVEPKSCDKTHTCPPCPAPEAAGGPSVFLFPPKPKDTLMISRTPEVTCVVVDVSHEDPEVKFNWYVDGVEVHNAKTKPREEQYNSTYRVVSVLTVLHQDWLNGKEYKCKVSNKALPAPIEKTISKAKGQPREPQVYTLPPSREEMTKNQVSLSCAVKGFYPSDIAVEWESNGQPENNYKTTPPVLDSDGSFFLVSKLTVDKSRWQQGNVFSCSVMHEALHNRYTQKSLSLSPGK
light: DIQMTQSPSTLSASVGDRVTITCRASQSVGYMHWYQQKPGKAPKLLIYDTSKLASGVPSRFSGSGSGTEFTLTISSLQPDDFATYYCFQGSGYPFTFGGGTKLEIKRTVAAPSVFIFPPSDEQLKSGTASVVCLLNNFYPREAKVQWKVDNALQSGNSQESVTEQDSKDSTYSLSSTLTLSKADYEKHKVYACEVTHQGLSSPVTKSFNRGEC
notes: also called CD137×CD137×RSV control molecule; CD137×RSV control molecule
[1]
  EC50 (read off the curve): ~0.03 nM
[2]
  binding result: no binding (tested: 10 ug/mL)
[3]
  EC50 (read off the curve): ~0.03 nM
[4]
  binding result: no binding (tested: about 60 nM (last point))
[5]
  EC50 (read off the curve): ~7 ng/mL

B2: chCD137 MAB-3 (antibody, V domains shown)
VH: QVQLQQPGAELVRPGASVKLSCKASGYTFTSYWINWVKQRPGQGLEWIGNIYPSDSYTNYNQKFKDKATLTVDKSSSTAYMQLSSPTSEDSAVYYCTRDYGSSYSFDYWGQGTTLTVSS
VL: DIQMTQTTSSLSASLGDRVTISCRPSQDISNYLNWYQQKPDGTVKLLIYYTSRLRSGVPSRFSGSGSGTDYSLTISNLEQEDIATYFCQQGDTLPYTFGGGTKLEIK
[6]
  EC50 (read off the curve): ~2 ng/mL
[7]
  Kd: 23 nM
  koff: 0.02 s⁻¹
  kon: 890000 M⁻¹ s⁻¹

B3: chCD137 MAB-4 (antibody, V domains shown)
VH: QVQLQQPGAELVRPGASVKLSCKASGYTFTSYWINWVKQRPGQGLEWIGNIYPSDSYTNYDQKFKDKATLTVDKSSSTAYMQLSSPTSEDSAVYYCTKSGEYGKIGYYAMDYWGQGTSVTVSS
VL: B2 VL with P25A, R55H, D92N
[6]
  EC50 (read off the curve): ~20 ng/mL
[7]
  Kd: 6.1 nM
  koff: 0.00092 s⁻¹
  kon: 150000 M⁻¹ s⁻¹

B4: chCD137 MAB-5 (antibody, V domains shown)
VH: QVQLKESGPGLVAPSQSLSITCTVSGFSLTSYDISWIRQPPGKGLEWLGVVWTGGGTNYNSAFMSRLSISKDNSKSQVFLKMNSLQTDDTAIYYCERVDYWGQGTSVTVSS
VL: DVVMTQTPLSLPVSLGDQASISCRSSQSLVHSNGNTYLHWYLQKPGQSPKLLIYKVSNRFSGVPDRFSGSGSGTDFTLKISRVEAEDLGVYFCSQSTHVPWTFGGGTKLEIK
[6]
  EC50 (read off the curve): ~100 ng/mL

B5: CD137 MAB-1 (antibody, V domains shown)
VH: QVQLQQWGAGLLKPSETLSLTCAVYGGSFSGYYWSWIRQSPEKGLEWIGEINHGGYVTYNPSLESRVTISVDTSKNQFSLKLSSVTAADTAVYYCARDYGPGNYDWYFDLWGRGTLVTVSS
VL: EIVLTQSPATLSLSPGERATLSCRASQSVSSYLAWYQQKPGQAPRLLIYDASNRATGIPARFSGSGSGTDFTLTISSLEPEDFAVYYCQQRSNWPPALTFGGGTKVEIK
notes: also called urelumab; BMS-663513
[6]
  EC50 (read off the curve): ~5 ng/mL
